According to the DeepSol protein solubility set:

Assay: soluble on expression in E. coli; label from the status in PepcDB or PDB records

Row | Sequence | soluble on expression in E. coli
1 | MEINENPTSFKGFKILQLSDLHNKSFGNNNNRLVKKIIGENPDIIVMTGDMVNAKDNDFEVFINLAEQISKSFDVYYIVGNHEQDLNEDKRKILMDKLSEIGIRVLDNEKVTISRGAESINLYGLWFNLRYYKDLKNEYTKDVFFGTKQIQSILGDLDTDSYNILLTHNPLYADTYSNWGADLTLSGHIHGGMIRIPFVGGLLSPEREFFPEYDAGKYQVNGKILIVNRGLGNGDFGIRVFNPPEISVIMLSNLEHHHHHH | not soluble
2 | ADMEVIELNKCTSGQSFEVILKPPSFDGVPEFNASLPRRRDPSLEEIQKKLEAAEERRKYQEAELLKHLAEKREHEREVIQKAIEENNNFIKMAKEKLAQKMESNKENREAHLAAMLERLQEKDKHAEEVRKNKELKEEASR | soluble
3 | MSLARHRGKTEKLYVIPLGGLGEIGKNCMVVQYGDDIIVIDAGLAFPEEEMLGIDIVIPDFTYLLENREKVRGILITHGHEDHIGAVAYLLRNINIPVYATRLTLGLIEGKLAEMGMKLPAESKAVRAGDQVKLGPFTCEFIRVNHSIPDACAIAVTTPVGTILHTGDFKFDQTPIDGEFADYRRLTELGKRGILALLSDSTNAERPGYTPSERSVRPNMERVFREAKGRILMATFASNVHRIQQAIELAAEMGKKVAVVGRSMENTVRIALELGYLNVPEGTMVTVDELRRVPLNQQVILTTGSQGEPMAALSRMAVNDHKAIELYPGDTVLFAATAIPGNEKSVARTVNNLYRRGAEVIYDRSAGVHVSGHASQEEQKLMINLTRPKFFVPIHGEYRMLLKHKQLAEACGIPSENILIGENGTIFEFTRNSAQITGKVTSGQVLVDGLGVGDVGNIVLRDRKQLAQEGILIVVVAVDREEGTIVGGPDMVSRGFVYVRESEGLLDEAKERVKRALADQMQRGLPEWAVLKSSIRDVLSKYLYDKTHRRPMILPIIIEIEGHHHHHH | soluble
4 | MNQCKVMNDGYLEKRSNGLLQLWKKKRCVLSDEGLRLYGCKGDSGKEMRFEQMTTLDCVEYKRGLVYFTIVMNDGKEVDFRCQQEGTAWNAEIALALVRFKNRVAVQTGRNRHLSHLGSCGEGDVEL | not soluble
5 | MPPNANSVGGPKKKNKKNHQRPQQQHQQTQPQPLPEEEQPENPIKKDPKPEVLEEVVEKNREEDKEKVEETVAPTIEKEKNISGDLLDFSSSDKSSLSSRPDSPEEDEDAVPVVNRTTTSPPTSPPSQTAVEQDSLQAEEMLVDMSLDDAPAAPPRKPHQRSAPPPIPSMNTIMTKPRTNSVSYIKGQVVRQSAVEQQTLANQVVDLVAMGMSKGQTQSSQITAEKAEWVQLTSVEKAGEPNERLEVLIVGLCRGYQIWTMSQSGEFEEVLSERQGPVRALKVLPNNLKLRGKKDSFADSRPLIAMVDASSHHPDRQYCSVTIISLLTGREVHKIKFEEPVCAVNVSDQFLVVSLANMAYAYDILTFNEVRTIRTAPSCENSPPALSLSCQLLAYADTSLDLNLQSSGGLAAEVEATSSEKYTDHIYTAMSYFSRSVKTISESVGAGSGSSTKANQPQGVITVLNLAVSGEDESDGVMCHYVAHVDPISYIAFSPDQRLVLSADANANVFNIFLLMPHATSSSLAAVQHLYKLNRGSTPAKVVSTAFSEDCRWLAITTNHATTHVFAVCPFGGKPNQRTHGDTFVNKESRFHRSAGLTDAADVTASIGPSKHRAMADSCSYTKEHPIAVNSPTLAKTNGNSRVGPFPPPLLLVATEKIKDSRYTKEDLSAWAADMTSFSYPAAQASSSPAVAARRRLEVSRMSVMFRMKSYNSTTSTKTAKTTKMLMSMSLVIAKVDPAQGVIVTQHDIKSLRKEGETNMEASPQISVAPVGGWILQRTKNNADMHAPMPSASPLMAFATVETVPAKRIGDEDVWTPHVETRTYLPPHRWIWQGPQFELFEYREDDQPSLMSPGNKGSNASFKSIPVLVGSEAVNITMKTIPADATRIECGSYTSANSYSIDQGSDQPVIGGYSSATNGDYIASIADAMRDISSDDDSTKKKSPKNDDLIEEFFDTESSTPFARNGSGSSSSTGATGGKSLKKKKTPPASAPLPTSSTKSSQKDKKVQNGRERSKDSDDFGTFDMDDI | not soluble
6 | MPASYLHHRSVTQQLPIMSTPHTDFFGLTIPFMQLLGVVPEHSGNGTARTRLPARADLVNSRGDIHGGTLMSVLDFTLGAAIRGDTPEVGVATIDMNTSFMSPGRGDLVIETRCLRRGASIAFCEGEIRDSAGELVAKATATFKIIQRRPGLEHHHHHH | soluble
7 | MAKVSVVMPVYNSEKYLKESIESILNQSYSDLEFIIINDGSTDNSFKIIKEYAKLDKRINVISRENKGIVYSLNEAIRLAKGEYIARMDADDISAPKRIEKQISFLKSHRDIDILGTQVKVVGNISNDIKEKNENKLNIEFDIYDDNREKILNYWYCLAHPSVMFRKDILRELKGYNDFKSEDLDLWLRAIESGFKIYKLKEELIYFRMHEESKTRVDNQNYEGLKDGIKIKLIDVFKREFKKDFKYIVWGASNGGKITKEVLDEFFEKSQCIAFVDKFKTGEFEKIRILHPKDINHIKFDYVFIATEPGKEEAMSSLKSMGLKCIKDFLSTVLEHHHHHH | not soluble
8 | SPNSQYLKTRILDIYTPEQRAGIEKSEDWRQFSRRMDTHFPKLMNELDSVYGNNEALLPMLEMLLAQAWQSYSQRNSSLKDIDIARENNPDWILSNKQVGGVCYVDLFAGDLKGLKDKIPYFQELGLTYLYLMPLFKCPEGKSDGGYAVSSYRDVNPALGTIGDLREVIAALHEAGISAVVDFIFNHTSNEHEWAQRCAAGDPLFDNFYYIFPDRRMPDQYDRTLREIFPDQHPGGFSQLEDGRWVWTTFNSFQWDLNYSNPWVFRAMAGEMLFLANLGVDILRMDAVAFIWKQMGTSCENLPQAHALIRAFNAVMRIAAPAVFFKSQAIVHPDQVVQYIGQDECQIGYNPLQMALLWNTLATREVNLLHQALTYRHNLPEHTAWVNYVRSHDDIGWTFADEDAAYLGISGYDHRQFLNRFFVNRFDGSFARGVPFQYNPSTGDCRVSGTAAALVGLAQDDPHAVDRIKLLYSIALSTGGLPLIYLGDEVGTLNDDDWSQDSNKSDDSRWAHRPRYNEALYAQRNDPSTAAGQIYQGLRHMIAVRQSNPRFDGGRLVTFNTNNKHIIGYIRNNALLAFGNFSEYPQTVTAHTLQAMPFKAHDLIGGKTVSLNQDLTLQPYQVMWLEIA | soluble
9 | MFIYCIPLISQSMIPMALDKTINVMKVTGMFAATYFTGDNRTPFFAFIICLKSFKLENMDQPPKNKSNIFPAVEDSLLLEHHHHHH | not soluble
10 | SLRVSASMSLVVLTFLLTCFMVRPMTAVTSDPLDFHWPGSRILAVGDLHGDIGNTMLLLYGAGVVDEDGNWIAGDTLLIQTGDVVDRGPDGKRIYDYFASLSAQATEQGGKIIQLLGNHDVMNICGDFRYAHPSETIEFGGALERRRQFMDGGHYGNMLRSFPLSIKANGVIFSHAGIPSDFAVLGLSKLTQQLREELANDCKLHNSRFYNEAMGSSTGDLFVAGSQGPLWTRVYSMGQMTKICEELDKTLGILDSEKMVIGHTVQESGNIEVYCGGRLLLIDTGVSRYVADSPRMLEIRDGTFFEWRLDISKQGTDSEPNVRGSKRQLNIPPLKN | not soluble
11 | YEGEKSVVVPVSATYKELHKLMEKEFKGKEFSVVDYDDDETILLIAVQSDKLYGTYYQFDTRTKKFTLLYDLMPQLKEEDMAEMRPIKFKSRDGLTIHGFITLPKAALEGKKVPLIVNPHGGPQGIRDSWGFNPETQLFASRGYATLQVNFRISGGYGKEFLRAGFKQIGRKAMDDVEDGVRYAISQGWVDPDRIAIYGASHGGYATLMGLVKTPDLYACGVDYVGVSNIYTFFDSFPEYWKPFKEMVKEIWYDLDNPEEAAIAKEVSPFFQIDKINKPLFVVQGANDPRVNINESDQIVTALRARGFEVPYMVKYNEGHGFHREENSMELYRAMLGFFAKHLK | not soluble
12 | MDTPENVLQMLEAHMQSYKGNDPLGEWERYIQWVEENFPENKEYLITLLEHLMKEFLDKKKYHNDPRFISYCLKFAEYNSDLHQFFEFLYNHGIGTLSSPLYIAWAGHLEAQGELQHASAVLQRGIQNQAEPREFLQQQYRLFQTRLTETHLPAQARTSEPLHNVQVLNQMITSKSNPGNNMACISKNQGSELSGVISSACDKESNMERRVITISKSEYSVHSSLASKVDVEQVVMYCKEKLIRGESEFSFEELRAQKYNQRRKHEQWVNEDRHYMKRKEANAFEEQLLKQKMDELHKKLHQVVETSHEDLPASQERSEVNPARMGPSVGSQQELRAPCLPVTYQQTPVNMEKNPREAPPVVPPLANAISAALVSPATSQSIAPPVPLKAQTVTDSMFAVASKDAGCVNKSTHEFKPQSGAEIKEGCETHKVANTSSFHTTPNTSLGMVQATPSKVQPSPTVHTKEALGFIMNMFQAPTLPDISDDKDEWQSLDQNEDAFEAQFQKNVRSSGAWGVNKIISSLSSAFHVFEDGNKENYGLPQPKNKPTGARTFGERSVSRLPSKPKEEVPHAEEFLDDSTVWGIRCNKTLAPSPKSPGDFTSAAQLASTPFHKLPVESVHILEDKENVVAKQCTQATLDSCEENMVVPSRDGKFSPIQEKSPKQALSSHMYSASLLRLSQPAAGGVLTCEAELGVEACRLTDTDAAIAEDPPDAIAGLQAEWMQMSSLGTVDAPNFIVGNPWDDKLIFKLLSGLSKPVSSYPNTFEWQCKLPAIKPKTEFQLGSKLVYVHHLLGEGAFAQVYEATQGDLNDAKNKQKFVLKVQKPANPWEFYIGTQLMERLKPSMQHMFMKFYSAHLFQNGSVLVGELYSYGTLLNAINLYKNTPEKVMPQGLVISFAMRMLYMIEQVHDCEIIHGDIKPDNFILGNGFLEQDDEDDLSAGLALIDLGQSIDMKLFPKGTIFTAKCETSGFQCVEMLSNKPWNYQIDYFGVAATVYCMLFGTYMKVKNEGGECKPEGLFRRLPHLDMWNEFFHVMLNIPDCHHLPSLDLLRQKLKKVFQQHYTNKIRALRNRLIVLLLECKRSRK | soluble
13 | MRVLALSAVFLVASIIGMPAVAKEWQENKSWNAHFTEHKSQGVVVLWNENKQQGFTNNLKRANQAFLPASTFKIPNSLIALDLGVVKDEHQVFKWDGQTRDIATWNRDHNLITAMKYSVVPVYQEFARQIGEARMSKMLHAFDYGNEDISGNVDSFWLDGGIRISATEQISFLRKLYHNKLHVSERSQRIVKQAMLTEANGDYIIRAKTGYSTRIEPKIGWWVGWVELDDNVWFFAMNMDMPTSDGLGLRQAITKEVLKQEKIIP | soluble
14 | MGVLDHVSEYFDCSHGSSKRHKSLQTVDVRVLIDCEGCERKVRRALEGMRGIRDVTIEPNAQKVTVVGYVEPNKVVARIIHRTGKRAELYPFVPYDVVAHPYASGVYDNRAPTGYVRNTEYDPHVSRLARASSTEVRYTTAFSDENASACVVM | soluble
15 | MSLSEKPCERVVLDTSVFTNPSVAAVFGDNATSALAQFVILARQVSPRMEFYMPPSVLGELHHFTDAEHLPGDLELVIKLRAPRRHDISVPGMFLYELIEDIRQRIDRGLRVAEKAVREVQPTSVDRTIRWLRDRYRDALRTGLLDSSEDLDVILLAVELDGAVASADRGLLQWAEKGGLRLIPPQRLRSILEHLIENGTAGEEGHHHHHH | soluble
16 | MSLERPEEYLPNIFEGKKGVIVDYGCGNGFYCKYLLEFATKLYCIDINVIALKEVKEKFDSVITLSDPKEIPDNSVDFILFANSFHDMDDKQHVISEVKRILKDDGRVIIIDWRKENTGIGPPLSIRMDEKDYMGWFSNFVVEKRFNPTPYHFGLVLKRKTSEGHHHHHPDPNSSSVDKLAAALEHHHHHH | soluble
